Several values for one entry are separate records, joined by “and”; a condition that tells them apart may be missing. Equal entries are not always repeated.
How the values were obtained:
Concanavalin A = Concanavalin A (Canavalia ensiformis, UniProt P02866); experiment: binding to and glucose elution from columns of immobilized Concanavalin A; parameters: species or system Jack Bean
Method: At the point indicated by the arrow, 0.2 M glucose in the column buffer was begun. Fractions (2.0 ml) were collected at a flow rate of 10-15 ml/h.
Displacement of hormone was accomplished using 1.0 ml pulses of column buffer containing varying amounts of glucose. Glucose content is indicated over the appropriate arrows. Fractions (1.7 ml) were collected at a flow rate of 10-15 ml/h.

blood glucose = experiment: blood-glucose depression assay modified from the U.S. Pharmacopeia; settings: individual animals A-F; overnight fast; 0.1mg protein/100gm body weight subcutaneous; 60 minutes after injection; each animal its own control
Method: The conjugate prepared in I was tested using the blood-glucose depression assay modified from the U.S. Pharmoacopeia (Vol. XVIII, 883-884 (1967)).
*After an overnight fast, each animal received 0.1mg protein/100gm body
weight by subcutaneous injection. Each of the animals served as its own
control, receiving the maltoseinsulin derivative on day 1, and control
insulin on day 2. Blood glucose depression was determined 60 minutes afte
injection using a Beckman Glucose Analyzer 2.

insulin [Control insulin]
binding to immobilized Concanavalin A (Concanavalin A; 20 mg applied to column, buffer wash, 25 mM sodium phosphate pH 7.4): did not bind to Concanavalin A | elution from Concanavalin A by glucose (Concanavalin A; 0.2 M glucose in column buffer, 1,000:1 molar excess of glucose): none was eluted by the addition of glucose | BLOOD GLUCOSE DEPRESSION (blood glucose): 75 mg % and 70 mg % and 79 mg % and 64 mg % and 73 mg %

From patent publication US4348387A, “Method and system for the controlled release of biologically active substances to a body fluid” (The Rockefeller University, priority 1979, dated 1982)
